B1: recombinant B. taurus Fam20C expressed from pMOZ14 (enzyme, from a related filing)
chain: MLLPKLERSAARPSGEPGCSCAQPAAEAAAPGWAQARGHPGGELEAAASAAGDAGWPNKHTLRILQDFSSDPSSNLTSHSLEKLPPAAEAAEGAPPGQDPGVRRPPDPAHRPLPRDPGPRGPVLPPGLSGDGSLLTRLFQHPLYQVPIPPLTEGDVLFNVNSDIRFNPKAATAENPDWPHEGPEDEFLPTGEAAVDSYPNWLKFHIGINRYELYSRHNPAVGALLQDLGTQKITSVAMKSGGTQLKLIMTFQNYGQALFKPMKQTREQETPPDFFYFSDYERHNAEIAAFHLDRILDFRRVPPVAGRLVNMTKEIRDVTRDKKLWRTFFISPANNVCFYGECSYYCSTEHALCGKPDQIEGSLAAFLPDLALAKRKTWRNPWRRSYHKRKKAEWEVDPDYCEEVRQTPPYDSSHRLLDVMDMTIFDFLMGNMDRHHYETFEKFGNETFIIHLDNGRGFGKHSHDELSILVPLQQCCRIRRSTYLRLQLLAQEEHRLSLLMAEALRADRVAPVLFQPHLEALDRRLRIVLRAVGDCVEKDGLHSVVEDDLGPEHRAAAGRHDEL
B2: recombinant B. taurus β-casein expressed from pMOZ1066 (GY1 signal peptide, β-casein, FLAG tag, 6 histidine tag, HDEL peptide) (other)
chain: RELEELNVPGEIVESLSSSEESITRINKKIEKFQSEEQQQTEDELQDKIHPFAQTQSLVYPFPGPIPNSLPQNIPPLTQTPVVVPPFLQPEVMGVSKVKEAMAPKHKEMPFPKYPVEPFTESQSLTLTDVENLHLPLPLLQSWMHQPHQPLPPTVMFPPQSVLSLSQSKVLPVPQKAVPYPQRDMPIQAFLLYQEPVLGPVRGPFPIIVDYKDDDDKHHHHHHHDEL
modifications: S50-p (phosphosite detected by mass spectrometry in 1066 milk; numbering not stated)
notes: Co-expressed with BtFam20C in soybean; also called Beta casein
B3: recombinant H. sapiens Fam20C expressed from pMOZ11 (protein)
chain: LDLLPRLERRGARPSGEPGCSCAQPAAEVAAPGWAQVRGRPGEPPAASSAAGDAGWPNKHTLRILQDFSSDPSSNLSSHSLEKLPPAAEPAERALRGRDPGALRPHDPAHRPLLRDPGPRRSESPPGPGGDASLLARLFEHPLYRVAVPPLTEEDVLFNVNSDTRLSPKAAENPDWPHAGAEGAEFLSPGEAAVDSYPNWLKFHIGINRYELYSRHNPAIEALLHDLSSQRITSVAMKSGGTQLKLIMTFQNYGQALFKPMKQTREQETPPDFFYFSDYERHNAEIAAFHLDRILDFRRVPPVAGRMVNMTKEIRDVTRDKKLWRTFFISPANNICFYGECSYYCSTEHALCGKPDQIEGSLAAFLPDLSLAKRKTWRNPWRRSYHKRKKAEWEVDPDYCEEVKQTPPYDSSHRILDVMDMTIFDFLMGNMDRHHYETFEKFGNETFIIHLDNGRGFGKYSHDELSILVPLQQCCRIRKSTYLRLQLLAKEEYKLSLLMAESLRGDQVAPVLYQPHLEALDRRLRVVLKAVRDCVERNGLHSVVDDDLDTEHRAASARHDEL
B4: recombinant H. sapiens Fam20A expressed from pMOZ12 (protein)
chain: QLRPRERPRGCPCTGRASSLARDSAAAASDPGTIVHNFSRTEPRTEPAGGSHSGSSSKLQALFAHPLYNVPEEPPLLGAEDSLLASQEALRYYRRKVARWNRRHKMYREQMNLTSLDPPLQLRLEASWVQFHLGINRHGLYSRSSPVVSKLLQDMRHFPTISADYSQDEKALLGACDCTQIVKPSGVHLKLVLRFSDFGKAMFKPMRQQRDEETPVDFFYFIDFQRHNAEIAAFHLDRILDFRRVPPTVGRIVNVTKEILEVTKNEILQSVFFVSPASNVCFFAKCPYMCKTEYAVCGNPHLLEGSLSAFLPSLNLAPRLSVPNPWIRSYTLAGKEEWEVNPLYCDTVKQIYPYNNSQRLLNVIDMAIFDFLIGNMDRHHYEMFTKFGDDGFLIHLDNARGFGRHSHDEISILSPLSQCCMIKKKTLLHLQLLAQADYRLSDVMRESLLEDQLSPVLTEPHLLALDRRLQTILRTVEGCIVAHGQQSVIVDGPVEQLAPDSGQANLTSHDEL
B5: recombinant B. taurus Fam20A expressed from pMOZ15 (enzyme, from a related filing)
chain: MHVSSHLGPRVRSRLQPRERPLGCPCARRAASPAPGPAPSAPRRVEPSGGGDPGSKLRALFAHPLYNEPEEPPLLGPEDSLLAGPEALRYYRRKVARWNRRRKMYKEQLNLTSPEPPVQLRQEASWVQFHLGINRHGLYPRSSPVVSKLLQDMRHFPTISADYSQDEKALLGACDCSQIVKPSGVHLKLVLRFSDFGKAMFKPMRQQRDEETPEDFFYFIDFQRHNAEIAAFHLDRILDFRRVPPTVGRLVNVTREILEVTRNEILQSVFFVSPANNVCFFAKCPYMCKTEYAVCGSPHLLEGSLSAFLPSLNLAPRFSMPSPWIRSYSLAGREEWEVNPLYCEAVKQAYPHNSSSRLLNIIDMAIFDFLIGNMDRHHYEMFTKFGEDGFLIHLDNARGFGRHSHDEVSILAPLFQCCRIKRKTLLHLQLLAQADYRLSDVMRESLLEDQLSPVLTEPHLLALDRRLQTVLRTVQDCIEAHGEQSVVADGPVGQWAPDSSRANATSHDEL

Columns and labels:
[1] = test system: T1, recombinant B. taurus αS1-casein expressed from pMOZ1066 (GY1 signal peptide, αS1-casein, FLAG tag, 6 histidine tag, HDEL peptide)
T1 sequence: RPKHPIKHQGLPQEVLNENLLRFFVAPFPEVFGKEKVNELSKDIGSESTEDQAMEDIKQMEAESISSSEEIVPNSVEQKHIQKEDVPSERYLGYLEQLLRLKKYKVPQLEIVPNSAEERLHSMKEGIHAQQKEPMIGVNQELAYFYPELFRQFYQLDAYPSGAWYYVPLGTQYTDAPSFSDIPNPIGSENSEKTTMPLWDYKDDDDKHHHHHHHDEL

[2] = test system: T2, recombinant B. taurus β-casein expressed from pMOZ1066 (GY1 signal peptide, β-casein, FLAG tag, 6 histidine tag, HDEL peptide)
T2 sequence: B2 chain

[3] = test system: T3, recombinant B. taurus Beta Casein expressed from pMOZ702 (signal peptide, beta casein, HA tag, 6 histidine tag, HDEL peptide)
T3 sequence: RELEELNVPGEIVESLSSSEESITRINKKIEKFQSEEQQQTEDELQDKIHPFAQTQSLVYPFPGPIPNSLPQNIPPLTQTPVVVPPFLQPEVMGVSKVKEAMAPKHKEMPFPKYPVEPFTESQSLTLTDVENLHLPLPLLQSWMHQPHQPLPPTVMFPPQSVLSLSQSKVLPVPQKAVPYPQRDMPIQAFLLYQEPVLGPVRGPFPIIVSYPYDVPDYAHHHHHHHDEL

[4] = target: T4, recombinant B. taurus αS1-casein expressed from pMOZ1066 (GY1 signal peptide, αS1-casein, FLAG tag, 6 … (B. taurus)); assay: TEM with FLAG immunogold labelling of soy embryos; micelle of αS1, β and κ casein in vivo
T4 construct: also called Alpha S1 casein; alphaS1 casein
T4 chain: T1 sequence

[5] = target: T5, recombinant B. taurus Beta Casein expressed from pMOZ702 (signal peptide, beta casein, HA tag, 6 histidine tag, HDEL peptide)
T5 chain: T3 sequence

Row | Molecule | upward band shift of beta casein on anti-beta-casein Western blot (2 bovine kinases together, pMOZ702+pMOZ14+pMOZ15) [3] | upward band shift of beta casein on anti-beta-casein Western blot (2 human kinases together, pMOZ702+pMOZ11+pMOZ12) [5] | upward band shift of beta casein on anti-beta-casein Western blot (co-expressed with HsFam20C and HsFam20A together, pMOZ702+pMOZ11+pMOZ12) [5] | also measured
1 | recombinant B. taurus Fam20C expressed from pMOZ1066 | – | – | – | phosphorylation by mass spectrometry in 1066 milk [1]: Phosphorylation of alphaSI casein was not detected in 1066 milk (data not shown); phosphosite detected by mass spectrometry in 1066 milk [2]: only one phosphosite S50-p was detected to be phosphorylated in beta casein in both 1066 milk and raw milk (data not shown)
2 | B1 | In lanes containing beta casein coexpressed with 1 human kinase, 2 human kinases, 1 bovine kinase or 2 bovine kinases the bands are shifted upward on the gel relative to the sample transformed with only beta casein | – | – | –
3 | B2 | – | – | – | binding result [4]: binds
4 | B3 | – | In lanes containing beta casein coexpressed with 1 human kinase, 2 human kinases, 1 bovine kinase or 2 bovine kinases the bands are shifted upward on the gel relative to the sample transformed with only beta casein | In lanes containing beta casein coexpressed with 2 human kinases the bands are shifted upward on the gel relative to the sample transformed with only beta casein | –
5 | B4 | – | In lanes containing beta casein coexpressed with 1 human kinase, 2 human kinases, 1 bovine kinase or 2 bovine kinases the bands are shifted upward on the gel relative to the sample transformed with only beta casein | In lanes containing beta casein coexpressed with 2 human kinases the bands are shifted upward on the gel relative to the sample transformed with only beta casein | –
6 | B5 | In lanes containing beta casein coexpressed with 1 human kinase, 2 human kinases, 1 bovine kinase or 2 bovine kinases the bands are shifted upward on the gel relative to the sample transformed with only beta casein | – | – | –
